The subject of series [1] is GST-p53 1-70 (GST fusion protein containing the first 70 amino acids of p53).
For series [2], the target named is GST-hUpf1 1019-1118 (GST fusion protein containing the carboxyl-terminal region of hUpf1, amino acids 1019-1118) (UniProt Q92900).

In the case of HA-ATMWT (HA-tagged wild-type ATM), the “specific kinase activity in immune complex kinase assay” value in series [1] is on record as “the specific kinase activity of HA-ATXWT towards GST-p531-70 was significantly higher than that of HA-ATM”. In series [2], the “phosphorylation in immune complex kinase assay” value is “this substrate was phosphorylated by both ATM and ATX, with the latter protein kinase showing the higher specific catalytic activity”.

Consider HA-ATXWT (HA-tagged wild-type long ATX), for which, in series [1], the “phosphorylation in immune complex kinase assay, compared with GST-hUpf1 1019-1118” value is “GST-p531-70 was more avidly phosphorylated by ATX than was the GST-hUpf11019-1118 substrate” and the “specific kinase activity (ratio of 32P incorporation into substrate to level of HA-tagged protein kinase), relative to ATMWT” value is “the specific kinase activity of ATXWT was approximately 3.5-fold higher than that of ATMWT”. For the same substance, in series [2], the “phosphorylation in immune complex kinase assay” value was “this substrate was phosphorylated by both ATM and ATX, with the latter protein kinase showing the higher specific catalytic activity”. Further, the “phosphorylation in immune complex kinase assay” value in the series with GST-p53 1-70 (S15A) was “phosphorylation of GST-p531-70 by ATXWT was nearly abolished by substitution of the Ser-15 residue in p53 with Ala”.

Values taken from patent US20030228675.
